Measurements published in article PMC6794829.

Key:
[1] = tested on: T1, HcdR2 (LuxR family regulator) (Streptomyces mobaraensis US-43), ORF:dfa86b54; experiment: EMSA; conditions: EMSA: 10 mM Tris-HCl, 50 mM KCl, 1 mM DTT, pH 7.5 (1x of 10x buffer), 20 fmol probe in 20 uL, 25-2000 nM protein, room temperature 20 min; native 5% gel, 0.5x …
T1 sequence: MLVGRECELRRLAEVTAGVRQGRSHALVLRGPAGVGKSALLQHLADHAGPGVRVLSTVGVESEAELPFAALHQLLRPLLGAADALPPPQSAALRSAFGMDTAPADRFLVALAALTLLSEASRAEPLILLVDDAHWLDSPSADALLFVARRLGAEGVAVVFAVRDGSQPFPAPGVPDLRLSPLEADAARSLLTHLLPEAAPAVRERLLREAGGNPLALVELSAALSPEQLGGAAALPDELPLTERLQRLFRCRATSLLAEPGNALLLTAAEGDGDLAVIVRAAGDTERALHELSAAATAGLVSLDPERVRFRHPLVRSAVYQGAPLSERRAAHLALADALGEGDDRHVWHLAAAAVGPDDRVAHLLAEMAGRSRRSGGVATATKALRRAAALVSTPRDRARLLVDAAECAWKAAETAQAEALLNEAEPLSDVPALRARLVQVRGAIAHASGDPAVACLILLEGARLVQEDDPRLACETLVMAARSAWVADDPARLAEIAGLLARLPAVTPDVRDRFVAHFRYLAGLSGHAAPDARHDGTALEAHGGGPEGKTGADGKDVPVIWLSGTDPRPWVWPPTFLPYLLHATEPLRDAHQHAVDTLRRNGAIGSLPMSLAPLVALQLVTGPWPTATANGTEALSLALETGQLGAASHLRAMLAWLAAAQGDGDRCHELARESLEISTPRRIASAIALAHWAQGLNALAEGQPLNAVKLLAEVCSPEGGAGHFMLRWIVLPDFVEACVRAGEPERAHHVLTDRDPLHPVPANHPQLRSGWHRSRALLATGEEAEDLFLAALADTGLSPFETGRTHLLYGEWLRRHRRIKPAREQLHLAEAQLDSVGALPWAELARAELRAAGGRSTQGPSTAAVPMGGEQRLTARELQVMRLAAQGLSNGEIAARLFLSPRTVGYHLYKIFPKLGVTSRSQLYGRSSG

[2] = tested on: T1, HcdR2 (LuxR family regulator) (Streptomyces mobaraensis US-43), ORF:dfa86b54; experiment: competition; conditions: EMSA: 10 mM Tris-HCl, 50 mM KCl, 1 mM DTT, pH 7.5 (1x of 10x buffer), 20 fmol probe in 20 uL, 25-2000 nM protein, room temperature 20 min; native 5% gel, 0.5x …

Sequence | binding [1] | binding [2]
GATTCAGCCAAGTGACCCCGCAAGAAGCCTCGTTCGCGAACGGTCCCTGAGCCCGCGCCCGCGCCGCACCCGCGGACCATCCGCCGAACGGCCGGGCCGCCCGTACGGTCTGGAGAGCGCCACGGCGTGCGGGTCCCGGTGGTGGGCCACGGCGCGGCCGACCCGTCAGGTGTTTCCGGGAGGCCGCGCCGCGGAGGGCACGCACGTCCGTGGCGGGACCGGGGGACGGGAGACGGCGTGGCGCCGCGTCATGGTCGTCCGGCGCCTCGATGCCGTCACGGCGCAGGGCGGGCCCGCCGG (double strand) [hcdT-1p] | no binding | 
CGCGCCCAGCGGCCAGGTGGGCCGTTGCGCCAGGCGGGCGGCCGCCACCCCCGCAGTGCCAGGGGCAGTCCGCCGCACAGCTCGGCCAGCCGTCGCGCAGC (double strand) [hcdR1p] |  | no binding
CTCTTCGCGGGGAGAGAGCGGCCGGTCGCGGCACGGCGAGCCTATGAAGATCGACACGGCCGCCCCACCCCCTACGACCCCTACGAACCCCTGTCCCCTACCGGCGCGGCAGGGGACAGGGGTTCGTAGGGGTCGTAGGGGGTGGGGGGCCGCCGGACGATCTTCATAGGCTCGCTCTCGATCGGAGACGGCCCTCGCAGCCGTGTCCCCGGCAACCCGGACTTCTCGCGGACCGGCCGCCCCCAGGCCGACCCCCCTACTCGATCCACGACGAGAAAGAGGTT (double strand) [V2 Bp] |  | binds
